The text below walks through data of patent publication US20200172904A1 (MIT, published 2020).

The test addresses FMR1 (mouse, UniProt P35922 1-614). Nature of the test: co-IP of Mena from E15.5 mouse brain lysates, western blot. For orientation: In western blotting, separated proteins are transferred to a membrane and probed.

Description: Collected lysates were cleared by centrifugation for 20 minutes 14k rpm at 4° C., and incubated overnight at 4° C. with antibodies on magnetic protein G beads (incubated in PBS for 4 hours at 4° C. After IP, beads were washed three times with lysis buffer containing 0.4% NP40, and boiled in 2× sodium dodecyl sulfate (SDS) sample buffer for loading onto an acrylamide gel either for western blotting or for Mass Spectrometry.
Mass spectrometry was performed after immunoprecipitation (IP) of Mena from lysates of E15.5 mouse brains from Mena-wild type and Mena-deficient animals. […] To verify the specificity of these interactions, co-IP experiments from E15.5 mouse brains was performed using Mena-deficient brain lysates or isotype-specific antibodies as negative controls.

B1: Mouse Mena/ENAH (Protein enabled homolog) (other)
chain: MSEQSICQARAAVMVYDDANKKWVPAGGSTGFSRVHIYHHTGNNTFRVVGRKIQDHQVVINCAIPKGLKYNQATQTFHQWRDARQVYGLNFGSKEDANVFASAMMHALEVLNSQEAAQSKVTATQDSTNLRCIFCGPTLPRQNSQLPAQVQNGPSQEELEIQRRQLQEQQRQKELERERMERERLERERLERERLERERLEQEQLERQRQEREHVERLERERLERLERERQERERERLEQLEREQVEWERERRMSNAAPSSDSSLSSAPLPEYSSCQPPSAPPPSYAKVISAPVSDATPDYAVVTALPPTSTPPTPPLRHAATRFATSLGSAFHPVLPHYATVPRPLNKNSRPSSPVNTPSSQPPAAKSCAWPTSNFSPLPPSPPIMISSPPGKATGPRPVLPVCVSSPVPQMPPSPTAPNGSLDSVTYPVSPPPTSGPAAPPPPPPPPPPPPPPPLPPPPLPPLASLSHCGSQASPPPGTPLASTPSSKPSVLPSPSAGAPASAETPLNPELGDSSASEPGLQAASQPAESPTPQGLVLGPPAPPPPPPLPSGPAYASALPPPPGPPPPPPLPSTGPPPPPPPPPPLPNQAPPPPPPPPAPPLPASGIFSGSTSEDNRPLTGLAAAIAGAKLRKVSRVEDGSFPGGGNTGSVSLASSKADAGRGNGPLPLGGSGLMEEMSALLARRRRIAEKGSTIETEQKEDRNEDAEPITAKAPSTSTPEPTRKPWERTNTMNGSKSPVISRPKSTPSSQPSANGVQTEGLDYDRLKQDILDEMRKELAKLKEELIDAIRQELSKSNTA
notes: Endogenous Mena from E15.5 mouse brain lysates, cultured mouse cortical neurons, N2A cells or MEFs
For B1, the binding result is given as “no binding”.
